Columns and labels:
[1] = biological target: T1, human TSPAN8-Myc-DDK expressed on CHO-K1 cell (human); test: binding to human TSPAN8-Myc-DDK expressed CHO-K1 cell
T1 construct: also called TSPAN8 (Myc-DDK-tagged)-Human tetraspanin 8 (ORIGENE, RC202694)
T1 chain: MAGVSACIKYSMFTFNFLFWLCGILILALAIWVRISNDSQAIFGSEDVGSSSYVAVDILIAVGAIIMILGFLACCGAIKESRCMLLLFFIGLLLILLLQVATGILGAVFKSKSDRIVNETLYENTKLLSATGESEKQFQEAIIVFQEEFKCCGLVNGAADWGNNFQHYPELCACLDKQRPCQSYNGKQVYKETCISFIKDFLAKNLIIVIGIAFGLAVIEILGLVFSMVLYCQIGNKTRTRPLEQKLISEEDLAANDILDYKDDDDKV
Experimental: For further specifying an antigen, an experiment of binding to a human TSPAN8-Myc-DDK expressed CHO-K1 cell was performed. The human TSPAN8-Myc-DDK expressed CHO-K1 cell was produced by transfecting TSPAN8 (Myc-DDK-tagged)-Human tetraspanin 8 (TSPAN8) (ORIGENE, RC202694) (SEQ ID NO: 2) into a CHO-K1 cell. As a result, it was confirmed that ten antibodies of 16B11, 16B12, 5B7, 9F6, 12C12, 13A9, 15D1, 18C10, 19E4 and 21F7 (referred to also as the “ten anti-TSPAN8 antibodies”) bound to the human TSPAN8-Myc-DDK expressed CHO-K1 cell, and recognize TSPAN8 as an antigen.

[2] = biological target: T2, human mouse TSPAN8-GFP chimeric protein on CHO-K1 cell (human; mouse) (UniProt P19075); test: flow cytometry on GFP-positive CHO-K1 cells; MFI minus MFI on mock cell
T2 sequence: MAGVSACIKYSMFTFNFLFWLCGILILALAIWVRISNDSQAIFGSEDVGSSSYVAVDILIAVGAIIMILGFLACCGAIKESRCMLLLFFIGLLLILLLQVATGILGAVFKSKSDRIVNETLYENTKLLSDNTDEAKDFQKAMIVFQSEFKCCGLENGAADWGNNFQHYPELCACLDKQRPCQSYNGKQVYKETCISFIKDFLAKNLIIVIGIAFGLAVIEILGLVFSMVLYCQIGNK

[3] = biological target: T3, human TSPAN8-GFP protein on wild-type human TSPAN8 expressing CHO-K1 cell (human, UniProt P19075 1-237); test: as above
T3 construct: whole, on cells; Transiently expressed; GFP-positive cells were analysed; also called Human TSPAN8 (Wild type); not shown: GFP of the pCMV6-AC-GFP vector (ORIGENE, PS100010)
T3 chain: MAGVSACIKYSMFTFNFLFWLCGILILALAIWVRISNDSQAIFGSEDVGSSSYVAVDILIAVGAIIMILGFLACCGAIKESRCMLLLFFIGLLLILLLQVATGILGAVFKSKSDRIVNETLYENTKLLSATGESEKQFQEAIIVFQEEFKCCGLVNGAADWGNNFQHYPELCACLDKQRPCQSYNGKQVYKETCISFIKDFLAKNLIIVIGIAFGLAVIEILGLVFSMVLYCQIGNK

[4] = biological target: T4, human rat TSPAN8-GFP chimeric protein on CHO-K1 cell (human; rat, UniProt P19075 156-237); test: as above
T4 construct: range 156-237; whole protein on cells; also called Human rat chimeric TSPAN8; human rat TSPAN8 chimeric protein; not shown: GFP of the pCMV6-AC-GFP vector (ORIGENE, PS100010)
T4 sequence: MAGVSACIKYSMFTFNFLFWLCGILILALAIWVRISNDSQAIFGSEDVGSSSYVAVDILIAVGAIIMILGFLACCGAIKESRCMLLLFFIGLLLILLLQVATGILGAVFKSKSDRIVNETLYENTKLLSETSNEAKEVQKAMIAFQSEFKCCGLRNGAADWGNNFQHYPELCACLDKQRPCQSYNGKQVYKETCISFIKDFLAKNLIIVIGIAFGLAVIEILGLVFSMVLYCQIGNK

[5] = biological target: T5, human TSPAN8(T131A)-GFP on CHO-K1 cell (human, UniProt P19075 1-237); test: as above
T5 construct: whole, on cells; Transiently expressed; GFP-positive cells were analysed; also called T131A mutant; not shown: GFP of the pCMV6-AC-GFP vector (ORIGENE, PS100010)
T5 sequence (looked up): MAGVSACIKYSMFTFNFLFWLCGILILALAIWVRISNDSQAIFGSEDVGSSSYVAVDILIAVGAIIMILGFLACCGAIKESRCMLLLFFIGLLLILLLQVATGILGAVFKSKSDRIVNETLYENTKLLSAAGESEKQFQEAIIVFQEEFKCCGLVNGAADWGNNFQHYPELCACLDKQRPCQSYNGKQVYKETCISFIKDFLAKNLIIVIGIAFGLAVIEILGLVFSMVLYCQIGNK

[6] = biological target: T6, human TSPAN8(T131N)-GFP on CHO-K1 cell (human, UniProt P19075 1-237); test: as above
T6 construct: whole, on cells; Transiently expressed; GFP-positive cells were analysed; also called T131N mutant; not shown: GFP of the pCMV6-AC-GFP vector (ORIGENE, PS100010)
T6 sequence (looked up): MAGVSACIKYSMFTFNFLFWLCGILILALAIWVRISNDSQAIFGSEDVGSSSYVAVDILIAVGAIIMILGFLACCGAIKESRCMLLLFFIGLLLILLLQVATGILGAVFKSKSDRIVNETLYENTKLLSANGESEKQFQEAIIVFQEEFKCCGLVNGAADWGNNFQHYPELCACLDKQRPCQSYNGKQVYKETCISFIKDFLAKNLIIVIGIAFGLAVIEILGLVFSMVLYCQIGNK

[7] = biological target: T2, human mouse TSPAN8-GFP chimeric protein on CHO-K1 cell (human; mouse); test: flow cytometry on GFP-positive CHO-K1 cells; against wild-type human TSPAN8 expressing CHO-K1 cell
[8] = biological target: T4, human rat TSPAN8-GFP chimeric protein …; test: as above
Description: (§1) Each vector produced was introduced into the CHO-K1 cell, to produce a cell transiently expressing a human TSPAN8-GFP protein, a human mouse TSPAN8-GFP chimeric protein or a human rat TSPAN8-GFP chimeric protein. The cell produced will be referred to as a wild-type human TSPAN8 expressing CHO-K1 cell, a human mouse TSPAN8 chimeric protein expressing CHO-K1 cell or a human rat TSPAN8 chimeric protein expressing CHO-K1 cell. Further, a cell in which a pCMV6-AC-GFP vector was introduced into a CHO-K1 cell (referred to as a mock cell) was produced. The bindings of 16B11, 16B12 and TAL69 to GFP-positive cells in these cells were measured by flow cytometry. No decrease in binding of TAL69 was observed either to the human rat or human mouse TSPAN8 chimeric protein expressing CHO-K1 cell. […] Meanwhile, the binding to the human mouse TSPAN8 chimeric protein expressing CHO-K1 cell attenuated as compared with that to the wild-type human TSPAN8 expressing CHO-K1 cell (FIGS. 5-1).
(§2) Further, in order to check whether or not the amino acid at position 131 of human TSPAN8 contributed to the binding of 16B11 or 16B12, a substitute of the amino acid was produced. Specifically, a vector containing a nucleotide sequence encoding a human TSPAN8-GFP fusion protein in which threonine (T) at position 131 of the amino acid sequence of human TSPAN8 in human TSPAN8-GFP of SEQ ID NO: 2 was replaced with alanine (A) or asparagine (N) (respectively referred to as “human TSPAN8(T131A)-GFP” or “human TSPAN8(T131N)-GFP”) was produced, and such a vector was transfected into the CHO-K1 cell, to construct a cell transiently expressing human TSPAN8(T131A)-GFP or human TSPAN8(T131N)-GFP. The cell constructed will be referred to as a human TSPAN8(T131A) expressing CHO-K1 cell or a human TSPAN8(T131N) expressing CHO-K1 cell. The bindings of 16B11, 16B12 and TAL69 to GFP-positive cells in these cells were measured by flow cytometry (FIGS. 5-3). As a result, the bindings of 16B11 and 16B12 to the human TSPAN8(T131A) expressing CHO-K1 cell and the human TSPAN8(T131N) expressing CHO-K1 cell attenuated as compared with the bindings to the wild-type human TSPAN8 expressing CHO-K1 cell.

[9] = biological target: T5, human TSPAN8(T131A)-GFP on CHO-K1 cell; test: as above
Description: as §1, §2

[10] = biological target: T6, human TSPAN8(T131N)-GFP on CHO-K1 cell; test: as above
Description: as §1, §2

[11] = biological target: T7, human mouse TSPAN8-GFP chimeric protein on CHO-K1 cell (human; mouse, UniProt P19075 156-237); test: flow cytometry on GFP-positive CHO-K1 cells; MFI minus MFI on mock cell
T7 construct: range 156-237; whole protein on cells; also called Human mouse chimeric TSPAN8; human mouse TSPAN8 chimeric protein; not shown: GFP of the pCMV6-AC-GFP vector (ORIGENE, PS100010)
T7 sequence: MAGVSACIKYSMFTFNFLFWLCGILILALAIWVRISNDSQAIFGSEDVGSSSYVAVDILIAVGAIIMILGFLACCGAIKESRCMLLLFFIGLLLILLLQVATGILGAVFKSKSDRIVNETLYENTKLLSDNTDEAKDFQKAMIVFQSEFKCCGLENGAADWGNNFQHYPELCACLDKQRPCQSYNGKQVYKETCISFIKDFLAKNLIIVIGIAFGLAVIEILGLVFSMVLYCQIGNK

[12] = biological target: T7, human mouse TSPAN8-GFP chimeric protein …; test: flow cytometry on GFP-positive CHO-K1 cells; against wild-type human TSPAN8 expressing CHO-K1 cell
Description: as §1, §2

B1: 16B11 (antibody, V domains shown)
VH: QVQLVESGGGVVQPGRSLRLSCAASGFTFSSYGMHWVRQAPGKGLEWVAVIWYDGRNKYYADSVKGRFTISRDNSKNTLYLQMNSLRAEDTAVYYCTRDHSGSGSYYIDYWGQGTLVTVSS
VL: EIAMTQSPATLSVSPGERATLSCRASQSVSSNLAWYQQKPGQAPRLLIYGASTRATGLPARFSGSGSGTEFTLTISSLQSEDFAVYYCQQYNNFWTFGQGTKVEIKR
notes: VelocImmune hybridoma antibody: human variable regions with mouse constant regions (chimeric); Used Alexa Fluor647-labeled in some assays; also called antibody 16B11; anti-TSPAN8 antibody 16B11
- binding result [1]: binds
- ΔMFI [2]: 5270
- ΔMFI [3]: 173000
- ΔMFI [4]: 161000
- ΔMFI [5]: 23400
- ΔMFI [6]: 3460
- ΔMFI relative value (relative (wild-type human TSPAN8 = 100)) [7]: 3
- ΔMFI relative value [8]: 93 relative (wild-type human TSPAN8 = 100)
- ΔMFI relative value [9]: 14 relative (wild-type human TSPAN8 = 100)
- ΔMFI relative value (relative (wild-type human TSPAN8 = 100)) [10]: 2

B2: 16B12 (antibody, V domains shown)
VH: QVQLVESGGGVVQPGRSLRLSCAASGFIFSSYGMHWVRQAPGKGLEWVAVIWYDGSNKYYADSVKGRFTISRDNSKNTLYLQMNSLRAEDTAMYYCARDHYGSGTYYIDYWGQGTLVTVSS
VL: EIVMTQSPATLSVSPGERATLSCRASQTVSSNLAWYQQKPGQAPRLLIYGASTRATGFPARFSGSGSGTEFTLTISSLQSEDFAVYYCQQYNNWWTFGQGTKVEIKR
notes: VelocImmune hybridoma antibody: human variable regions with mouse constant regions (chimeric); also called antibody 16B12; anti-TSPAN8 antibody 16B12
- ΔMFI [4]: 22400
- ΔMFI [11]: 102
- ΔMFI relative value [8]: 84 relative (wild-type human TSPAN8 = 100)
- ΔMFI relative value [12]: 0 relative (wild-type human TSPAN8 = 100)

B3: Purified anti-human TSPAN8 Antibody (BioLegend, 362702 Clone TAL69) (antibody, V domains shown)
VH: EVKLLESGGGLVQPGGSMRLSCAASGFTFTDFYMNWIRQPAGKAPEWLGFIRNKASGYTTEYNPSVKGRFTISRDNTQNMLYLQMNTLRAEDTATYYCARAHSYYGYDYFDYWGQGVMVTVSS
VL: DIQMTQSPASLSASLEEIVTITCQASQDIGNWLSWYQQKPGKSPQLLIYGATSLADGVPSRFSGSRSGTQYSLKISRLQVEDIRIYYCLQAYSAPWTFGGGTKLELK
- ΔMFI [3]: 133000
- ΔMFI [4]: 96200
- ΔMFI [11]: 305000
- ΔMFI [5]: 184000
- ΔMFI [6]: 143000
- ΔMFI relative value [8]: 72 relative (wild-type human TSPAN8 = 100)
- ΔMFI relative value [12]: 230 relative (wild-type human TSPAN8 = 100)
- ΔMFI relative value [9]: 139 relative (wild-type human TSPAN8 = 100)
- ΔMFI relative value [10]: 108 relative (wild-type human TSPAN8 = 100)

Source: US20230348587A1 (Astellas, published 2023)
